Measured values taken from the supplement of paper PMC11780869.

Test system: Bacillus subtilis
Test: cleaved RNA product abundance (RNA/gDNA barcode ratio) relative to median wild-type variant (ratio to wild type); higher = more accumulation of the downstream cleavage product
Settings: cleavage site: cggR-gapA (positions -7 to +36 mutated)
Procedure: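 MPRA in B. subtilis. Mutagenized RNase Y cleavage-site regions (9% mutation rate) were inserted into a barcoded reporter mRNA (truncated aprE or tetM). Cells were grown in LB at 37°C to OD600 0.3. The cleaved RNA isoform was gel-purified and its barcodes counted; the RNA:gDNA barcode ratio was normalised to the median wild-type variant, and the median over barcodes is reported per variant. The printed sequence is the variable window only; the reporter flanks are not printed.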

[1] = experiment (reporter, strain, medium): exp 2b: truncated aprE reporter, strain BJT200
[2] = experiment (reporter, strain, medium): exp 4a: truncated aprE reporter, strain BJT201 with 2% xylose (RNase J1 expressed)

Row | Sequence | cleaved RNA product abundance [1] | cleaved RNA product abundance [2] | cleaved RNA product abundance (experiment (reporter, strain, medium): exp 6: tetM reporter, strain 168)
1 | ACAGACGAAGGAGCCGCAAAGAAGTGATTAAGGGATGAATAATCCATCAATATAAATATCTCTCACTTATTTAAA | 0.27 | 0.257 | –
2 | ACAGACGAAGGAGCCGCAAAGAAGTGATTAAGGGATGAATAATCCCACAATATAAATATCTCTCACTTATTTAAA | – | 0.226 | –
3 | ACAGACGAAGGAGCCGCAAAGAAGTGATTAAGGGATGAATAATCCCGCAATATAAATATCTCTCACTTATTTAAA | – | 0.124 | –
4 | ACAGACGAAGGAGCCGCAAAGAAGTGATTAAGGGATGAATAATCCCTAAATATAAATATCTCTCACTTATTTAAA | – | 0.388 | –
5 | ACAGACGAAGGAGCCGCAAAGAAGTGATTAAGGGATGAATAATCCCTCAAAATAAATATCTCTCACTTATTTAAA | – | 0.258 | –
6 | ACAGACGAAGGAGCCGCAAAGAAGTGATTAAGGGATGAATAATCCCTCAACATAAATATCTCTCACTTATTTAAA | 0.293 | – | –
7 | ACAGACGAAGGAGCCGCAAAGAAGTGATTAAGGGATGAATAATCCCTCAATATAAAAATCTCTCACTTATTTAAA | – | 0.728 | –
8 | ACAGACGAAGGAGCCGCAAAGAAGTGATTAAGGGATGAATAATCCCTCAATATAAATAACTCTCACTTATTTAAA | – | 0.522 | –
9 | ACAGACGAAGGAGCCGCAAAGAAGTGATTAAGGGATGAATAATCCCTCAATATAAATATCTCTCACTTATTTAAA | 0.318 | 0.391 | 0.274
10 | ACAGACGAAGGAGCCGCAAAGAAGTGATTAAGGGATGAATAATCCCTCACTATAAATATCTCTCACTTATTTAAA | – | 0.0759 | –
11 | ACAGACGAAGGAGCCGCAAAGAAGTGATTAAGGGATGAATAATCCCTCTATATAAATATCTCTCACTTATTTAAA | – | 0.377 | –
12 | ACAGACGAAGGAGCCGCAAAGAAGTGATTAAGGGATGAATAATCCCTTAATATAAATATCTCTCACTTATTTAAA | – | 0.74 | –
13 | ACAGACGAAGGAGCCGCAAAGAAGTGATTAAGGGATGAATAATCCTTCAATATAAATATCTCTCACTTATTTAAA | 0.337 | 0.342 | –
14 | ACAGACGAAGGAGCCGCAAAGAAGTGATTAAGGGATGAATAATCGCTCAATATAAATATCTCTCACTTATTTAAA | – | 0.0548 | –
15 | ACAGACGAAGGAGCCGCAAAGAAGTGATTAAGGGATGAATAATCTCTCAATATAAATATCTCTCACTTATTTAAA | – | 0.306 | –
16 | ACAGACGAAGGAGCCGCAAAGAAGTGATTAAGGGATGAATACTCCCTCAATATAAATATCTCTCACTTATTTAAA | – | 0.354 | –
17 | ACAGACGAAGGAGCCGCAAAGAAGTGATTAAGGGATGAATAGTCCCTCAATATAAATATCTCTCACTTATTTAAA | 0.184 | 0.274 | –
18 | ACAGACGAAGGAGCCGCAAAGAAGTGATTAAGGGATGAATTATCCCTCAATATAAATATCTCTCACTTATTTAAA | – | 0.366 | –
19 | ACAGACGAAGGAGCCGCAAAGAAGTGATTAAGGGATGAGTAATCCCTCAATATAAATATCTCTCACTTATTTAAA | – | 0.285 | –
20 | ACAGACGAAGGAGCCGCAAAGAAGTGATTAAGGGATGCATAATCCCTCAATATAAATATCTCTCACTTATTTAAA | – | 0.51 | –
21 | ACAGACGAAGGAGCCGCAAAGAAGTGATTAAGGGATTAATAATCCCTCAATATAAATATCTCTCACTTATTTAAA | 0.459 | 0.325 | –
22 | ACAGACGAAGGAGCCGCAAAGAAGTGATTAAGGGCTGAATAATCCCTCAATATAAATATCTCTCACTTATTTAAA | – | 0.309 | –
23 | ACAGACGAAGGAGCCGCAAAGAAGTGATTAAGGGTTGAATAATCCCTCAATATAAATATCTCTCACTTATTTAAA | 0.15 | 0.263 | –

Row | Sequence | cleaved RNA product abundance [1] | cleaved RNA product abundance [2] | cleaved RNA product abundance (experiment (reporter, strain, medium): exp 6: tetM reporter, strain 168)
24 | ACAGACGAAGGAGCCGCAAAGAAGTGATTAAGGTATGAATAATCCCTCAATATAAATATCTCTCACTTATTTAAA | 0.0827 | 0.113 | –
25 | ACAGACGAAGGAGCCGCAAAGAAGTGATTAAGTGATGAATAATCCCTCAATATAAATATCTCTCACTTATTTAAA | 0.114 | 0.0876 | –
26 | ACAGACGAAGGAGCCGCAAAGAAGTGATTAATGGATGAATAATCCCTCAATATAAATATCTCTCACTTATTTAAA | 0.0996 | 0.108 | –
27 | ACAGACGAAGGAGCCGCAAAGAAGTGATTACGGGATGAATAATCCCTCAATATAAATATCTCTCACTTATTTAAA | – | 0.396 | –
28 | ACAGACGAAGGAGCCGCAAAGAAGTGATTTAGGGATGAATAATCCCTCAATATAAATATCTCTCACTTATTTAAA | – | 0.386 | –
29 | ACAGACGAAGGAGCCGCAAAGAAGTTAAAAAAGGATGAATAATCCCTCAATATAAATATCTCTCACTTATTTAAA | – | 0.227 | –
30 | ACAGACGAAGGAGCCGCAAAGAAGTTAAAAAGGGATGAATAATCCCTCAATATAAATATCTCTCACTTATTTAAA | 0.268 | 0.392 | –
31 | ACAGACGAAGGAGCCGCAAAGAAGTTAATAAAGGATGAATAATCCCTCAATATAAATATCTCTCACTTATTTAAA | 0.143 | 0.215 | –
32 | ACAGACGAAGGAGCCGCAAAGAAGTTAATAACGGATGAATAATCCCTCAATATAAATATCTCTCACTTATTTAAA | – | 0.177 | –
33 | ACAGACGAAGGAGCCGCAAAGAAGTTAATAAGAGATGAATAATCCCTCAATATAAATATCTCTCACTTATTTAAA | – | 0.133 | –
34 | ACAGACGAAGGAGCCGCAAAGAAGTTAATAAGCGATGAATAATCCCTCAATATAAATATCTCTCACTTATTTAAA | 0.0808 | 0.104 | –
35 | ACAGACGAAGGAGCCGCAAAGAAGTTAATAAGGAATGAATAATCCCTCAATATAAATATCTCTCACTTATTTAAA | 0.103 | 0.165 | –
36 | ACAGACGAAGGAGCCGCAAAGAAGTTAATAAGGCATGAATAATCCCTCAATATAAATATCTCTCACTTATTTAAA | 0.0718 | 0.104 | –
37 | ACAGACGAAGGAGCCGCAAAGAAGTTAATAAGGGAAGAATAATCCCTCAATATAAATATCTCTCACTTATTTAAA | 0.135 | 0.17 | –
38 | ACAGACGAAGGAGCCGCAAAGAAGTTAATAAGGGACGAATAATCCCTCAATATAAATATCTCTCACTTATTTAAA | 0.154 | 0.164 | –
39 | ACAGACGAAGGAGCCGCAAAGAAGTTAATAAGGGATAAATAATCCCTCAATATAAATATCTCTCACTTATTTAAA | 0.253 | 0.382 | –
40 | ACAGACGAAGGAGCCGCAAAGAAGTTAATAAGGGATCAATAATCCCTCAATATAAATATCTCTCACTTATTTAAA | 0.282 | 0.316 | –
41 | ACAGACGAAGGAGCCGCAAAGAAGTTAATAAGGGATGAAAAATCCCTCAATATAAATATCTCTCACTTATTTAAA | – | 0.293 | –
42 | ACAGACGAAGGAGCCGCAAAGAAGTTAATAAGGGATGAACAATCCCTCAATATAAATATCTCTCACTTATTTAAA | 0.251 | – | –
43 | ACAGACGAAGGAGCCGCAAAGAAGTTAATAAGGGATGAAGAATCCCTCAATATAAATATCTCTCACTTATTTAAA | – | 0.278 | –
44 | ACAGACGAAGGAGCCGCAAAGAAGTTAATAAGGGATGAATAAACCCTCAATATAAATATCTCTCACTTATTTAAA | 0.167 | 0.177 | –
45 | ACAGACGAAGGAGCCGCAAAGAAGTTAATAAGGGATGAATAACCCCTCAATATAAATATCTCTCACTTATTTAAA | – | 0.192 | –
